What was measured:
E. coli cells [1] = test: Hydrocarbon content of E. coli cells expressing algal GMC oxidoreductase; assay type: cell-based, Escherichia coli; details: no fatty acid substrate added; absent with empty vector
Description: Chlamydomonas reinhardtii and Phaeodactylum tricornutum Alkane synthase was amplified from a synthetic gene codon-optimized for E. coli using for Chlamydomonas reinhardtii a primer forward 5′-[…]-3′ (SEQ ID No 29) and a primer reverse, 5′-[…]-3′ (SEQ ID No 30). For Phaeodactylum tricornutum, forward primer 5′-[…]-3′ (SEQ ID No 31), reverse primer 5′-[…]-3′ (SEQ ID No 32). Genes were cloned into pLIC07 vector, which introduced downstream of the ATG start codon a cassette coding for a 6 His-tagged thioredoxin and a tobacco etch virus (TEV) protease-cleavage site. E. coli strain expressing the GMC oxidase from Chlorella variabilis NC64A, Chlamydomonas reinhardtii or Phaeodactylum triconutum were grown at 37° C. with agitation at 180 rpm and light at 100 μmole.photon.m^−2·s^−1. When OD reached 0.6, 500 μM of isopropyl β-D-1-thiogalactopyranoside was added. Cells were then grown for 24 hours at 37° C., harvested, transmethylated using methanol added with 5% sulfuric acid and hydrocarbons were extracted with hexane and analyzed by GC-MS as previously described.

[2] = target: T1, Chlorella GMC oxidoreductase (Chlorella variabilis, UniProt A0A248QE08); test: Enzymatic assay with purified recombinant enzyme (GC-MS of products); assay type: biochemical, Chlorella variabilis NC64A; details: for fatty acid substrate range of the enzyme: purified recombinant enzyme, white light
T1 construct: 6 His-tagged thioredoxin (N, cleaved yes); TEV protease-cleavage site (N, cleaved yes); made in house; host or cells: E. coli BL21-CodonPlus (DE3)-RIL
Description: (§1) All assays were performed in transparent glass vials sealed using caps with septum. Optimum pH was determined using a Teorell Stenhagen universal buffer (33 mM citric acid monohydrate, 33 mM phosphoric acid, 100 mM NaOH, 16.7 mM of boric acid, pH 8.5 adjusted with 1N HCl). Other assays were performed in 100 mM Tris HCl pH 8.5, 100 mM NaCl. Reaction mixtures (500 μL) typically contained 160 nM purified enzyme (stock ? solution 2.5 mg ml^−1) and 400 μM substrate (stock solution 10 mM in ethanol). In some assays, a lipase was used with the alkane synthase. In this case, substrate was a triacylglycerol. Generally, samples were shaken at 200 rpm during 15 min under LED-made white light at 2000 μmol ? photons m^−2s^−1. After the incubations, samples were heated at 95° C. during 15 min to stop the enzymatic reaction. Samples were cooled down and internal standard (hexadecane) was added (45 nmol from a 4.5 mM stock solution in chloroform). NaOH was then added to the reaction mixture (10 μL from a stock solution of 10 M) and samples were vortexed for 5 min. Then 250 μL of hexane was added and samples were vortexed for 5 min to extract alkanes and alkenes. The hexane phase was collected by centrifugation and analyzed by GC-MS-FID. The analysis was done by direct injection of 100 μl of the headspace into a GC-MS. In FIG. 11 activity on 1-^13C-palmitate was monitored by release of ^13CO2 using membrane inlet mass spectrometry. Illuminations were provided by CBT-120 LEDs (Luminous, Billerica) either blue (peak at 460 nm, 25 nm FWHM), or red (peak at 635 nm, 15 nm FWHM) at an intensity of 850 μmol photons m^−2 s^−1.

Chlamydomonas strain = test: Hydrocarbons in Chlamydomonas strain with chloroplast genome transformed with the Chlorella enzyme cDNA; assay type: cell-based, Chlamydomonas reinhardtii; details: chloroplastic genome transformed with cDNA of the enzyme
Description: Chlamydomonas reinhardtii CC124 (nit1 nit2; mt−) and Chlamydomonas reinhardtii overexpressing the alkane synthase gene were cultured in minimal medium (Harris, 1989) in one liter photobioreactors (BIOSTAT Aplus, Sartorius Stedim Biotech) operated as turbidostats. A880 was measured continuously using a biomass probe (Excellprobe, Exner) and cultures were maintained at constant A880 by injection of fresh medium. The pH was maintained at a constant value of 7 by injection of KOH (0.2 N) or HCl (0.2 N). The cultures were stirred using a metal propeller (250 rpm). The gas flow rate was adjusted to 0.5 L min^−1. Air enriched with 2% (v/v) CO2 was generated using mass flow meters (EL flow, Bronkhorst). White light was supplied by eight fluorescent tubes (Osram Dulux L 18 W) placed radially around the photobioreactor. We used a blue filter (363 special medium blue, Lee filters, USA) and a red filter (113 magenta, Lee filters, USA) to provide respectively blue and red light. Both lights were at same intensity (35 μmol photons m^−2s^−1).
To quantify hydrocarbons together with fatty acids, transmethylation of whole cells was used. […]

[3] = target: T1, Chlorella GMC oxidoreductase; test: 13CO2 release from 1-13C-palmitate with the purified enzyme (membrane inlet mass spectrometry); assay type: biochemical, Chlorella variabilis NC64A; details: CO2 production monitored, light on/off
Description: as §1, with “Then 250 μL of hexane was added and samples were vortexed for 5 min to extract alkanes and alkenes.” left out, “The analysis was done by direct injection of 100 μl of the headspace into a GC-MS.” left out, “Illuminations were provided by CBT-120 LEDs (Luminous, Billerica) either blue (peak at 460 nm, 25 nm FWHM), or red (peak at 635 nm, 15 nm FWHM) at an intensity of 850 μmol photons m^−2 s^−1.” left out
Online measurements of ^12CO2 (m/z=44) and ^13CO2 (m/z=45) were monitored using mass spectrometry (model Prima B, Thermo Scientific). […]

E. coli cells [4] = test: Co-expression in E. coli of a GMC oxidoreductase and a lipase; assay type: cell-based, Escherichia coli; details: compared to E. coli strains expressing the GMC oxidoreductases alone
Description: E. coli strain transformed with a vector expressing the GMC oxidase from Chlorella variabilis NC64A (or Chlamydomonas reinhardtii) and/or a vector expressing the lipase from the bacterium Staphylococcus hyicus, were grown in TB medium at 37° C. Expression was induced with 1 mM of isopropyl β-D-1-thiogalactopyranoside (added with 0.2% arabinose for co-expression). Cells were then grown overnight at 25° C. at 100 μmole.photon.m^−2·s^−1 and 6 h at 2000 μmole.photon.m^−2·s^−1. Cells were harvested (4 ml at OD=5), transmethylated using methanol added with 5% sulfuric acid and hydrocarbons were analyzed by SPME and GC-MS as previously described.

| Molecule | hydrocarbons formed in E. coli cells expressing the enzyme (E. coli cells [1]) | dependence of pentadecane production on light intensity [2] | fatty acid substrate range of the enzyme [2] | fatty acid substrate range of the enzyme ([2]; listed as Chlorella alkane synthase) | change of hydrocarbon content in transformed Chlamydomonas strain (Chlamydomonas strain) | dependence of enzyme activity on light [3] | increase in most hydrocarbons on co-expression with bacterial lipase (Uniprot P04635) (E. coli cells [4]) |
| --- | --- | --- | --- | --- | --- | --- | --- |
| Phaeodactylum enzyme: GMC oxidoreductase of the diatom Phaeodactylum tricornutum expressed in Escherichia coli (protein, listed as Phaeodactylum tricornutum) YDYIICGGGLAGCVLAERLSQDESKRVLVLEAGGSDYKSLFIRIPAGVLRLFRSKYDWQHETGGEKGCNGRNVFLQRGKILGGSSCTNVCLHHRGSAEDYNSWNIPGWTATDVLPFFKQSQKDETGRDATFHGADGEWVMDEVRYQNPLSKLFLEVGEAAGLGTNDDFNNWSHPQDGVGRFQVSEVNGERCSGATAFLSKAAKRSNVIVRTGTMVRRIDFDETKTAKGITYDLMGDDTCTTFQACLKEGGEVLVTGGAIASPQLLMCSGIGPGKHLRSLGIPVVHDNSAVGENLQDHPAAVVSFKTPQKGVSVTSKLRLFGKTNPIPVFQWLFFKSGLLTSTGCDHGAFVRTSDSLEQPDLQIRFLAARALGPDGMTTYTKFRTMKTVEDGYSFQSVACRAKSKGRIRLSSSNSHVKPMIDGGYLSNQDDLATLRAGIKLGRMLGNRPEWGEYLGQEVYPGPDVQTDEEIDEYIRNSLHTANALTGTCKMGTGRGAVVGPDLRVIGVNGVRVGDSSVFPCIPGGQTATPTVMIGDRAAVFVRQPVSQLNIEIFREKGGTHPGATTASA | albeit in lower amounts |  |  |  |  |  |  |
| Chlorella GMC oxidoreductase: GMC protein from Chlorella variabilis NC64A; 69 kDa FAD-dependent fatty acid decarboxylase (alkane synthase) (protein, listed as Chlorella variabilis) RASAVEDIRKVLSDSSSPVAGQKYDYILVGGGTAACVLANRLSADGSKRVLVLEAGPDNTSRDVKIPAAITRLFRSPLDWNLFSELQEQLAERQIYMARGRLLGGSSATNATLYHRGAAGDYDAWGVEGWSSEDVLSWFVQAETNADFGPGAYHGSGGPMRVENPRYTNKQLHTAFFKAAEEVGLTPNSDFNDWSHDHAGYGTFQVMQDKGTRADMYRQYLKPVLGRRNLQVLTGAAVTKVNIDQAAGKAQALGVEFSTDGPTGERLSAELAPGGEVIMCAGAVHTPFLLKHSGVGPSAELKEFGIPVVSNLAGVGQNLQDQPACLTAAPVKEKYDGIAISDHIYNEKGQIRKRAIASYLLGGRGGLTSTGCDRGAFVRTAGQALPDLQVRFVPGMALDPDGVSTYVRFAKFQSQGLKWPSGITMQLIACRPQSTGSVGLKSADPFAPPKLSPGYLTDKDGADLATLRKGIHWARDVARSSALSEYLDGELFPGSGVVSDDQIDEYIRRSIHSSNAITGTCKMGNAGDSSSVVDNQLRVHGVEGLRVVDASVVPKIPGGQTGAPVVMIAERAAALLTGKATIGASAAAPATVAA | presence of long chain alkanes from 13 to 17 carbons | increases linearly with light intensity | active on a variety of saturated free fatty acids ranging from C12 to C22 carbons | can use C12 to C22 fatty acids | an increase was noted in the heptadecene content, and heptadecane also appeared | stops immediately when light is turned off | two to three-fold increase |
| Chlamydomonas enzyme: GMC oxidoreductase of Chlamydomonas reinhardtii expressed in Escherichia coli (protein, listed as Chlamydomonas reinhardtii) LSVRAAAGPAGSEKFDYVLVGGGTASCVLANKLSADGNKKVLVLEAGPTGDAMEVAVPAGITRLFAHPVMDWGMSSLTQKQLVAREIYLARGRMLGGSSGSNATLYHRGSAADYDAWGLEGWSSKDVLDWFVKAECYADGPKPYHGTGGSMNTEQPRYENVLHDEFFKAAAATGLPANPDFNDWSHPQDGFGEFQVSQKKGQRADTYRTYLKPAMARGNLKVVIGARATKVNIEKGSSGARTTGVEYAMQQFGDRFTAELAPGGEVLMCSGAVHTPHLLMLSGVGPAATLKEHGIDVVSDLSGVGQNLQDHPAAVLAARAKPEFEKLSVTSEVYDDKCNIKLGAVAQYLFQRRGPLATTGCDHGAFVRTSSSLSQPDLQMRFVPGCALDPDGVKSYIVFGELKKQGRAWPGGITLQLLAIRAKSKGSIGLKAADPFINPAININYFSDPADLATLVNAVKMARKIAAQEPLKKYLQEETFPGERASSDKDLEEYIRRTVHSGNALVGTAAMGASPAAGAVVSSADLKVFGVEGLRVVDASVLPRIPGGQTGAATVMVAERAAALLRGQATIAPSRQPVAV | formation in E. coli cells of pentadecane and heptadecane as well as their monounsaturated analogs |  |  |  |  |  | two to three-fold increase |
